# Paper PMC4670726, “Systematic discovery of linear binding motifs targeting an ancient protein interaction surface on MAP kinases” (Molecular Systems Biology, 2015)
# Ends that are not written are not given here.
# B1: pepRSK1, labeled reporter peptide (peptide)
# peptide: PQLKPIESSILAQRRVRKLPSTTL
# modifications: also: N-terminal label: carboxyfluorescein or carboxytetramethylrhodamine
# notes: docking peptide of RSK1; source: synthetic peptide
# B2: pepMK2, labeled reporter peptide (peptide)
# peptide: IKIKKIEDASNPLLLKRRKK
# modifications: also: N-terminally labeled with carboxyfluorescein or carboxytetramethylrhodamine
# notes: docking peptide of MK2; source: synthetic peptide
# B3: pepMEF2A, labeled reporter peptide (peptide)
# peptide: SRKPDLRVVIPPS
# modifications: also: N-terminally labeled with carboxyfluorescein or carboxytetramethylrhodamine
# notes: docking peptide of MEF2A; source: synthetic peptide
# What was measured:
# [1] = target: T1, ERK2 (as used in the fluorescence polarization titrations) (human, UniProt P28482 1-360); experiment: fluorescence polarisation; competition: 50 nM N-terminally labeled reporter peptide mixed with MAPK at ~60–80% complex formation, increasing amounts of unlabeled synthetic test peptide added; 384-well plates, triplicates; Ki from a competition binding equation; settings: both partners purified
# T1 construct: ERK2; the FP methods say only 'MAPKs'
# T1 sequence (P28482 whole entry): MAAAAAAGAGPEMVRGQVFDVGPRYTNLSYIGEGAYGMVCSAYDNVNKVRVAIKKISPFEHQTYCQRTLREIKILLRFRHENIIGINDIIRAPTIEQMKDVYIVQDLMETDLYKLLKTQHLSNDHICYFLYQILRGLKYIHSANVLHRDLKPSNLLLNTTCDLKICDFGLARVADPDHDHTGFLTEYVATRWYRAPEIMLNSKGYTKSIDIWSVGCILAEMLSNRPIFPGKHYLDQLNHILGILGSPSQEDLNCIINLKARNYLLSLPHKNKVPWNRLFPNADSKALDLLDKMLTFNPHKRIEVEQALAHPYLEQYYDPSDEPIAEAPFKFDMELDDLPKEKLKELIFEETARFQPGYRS
# [2] = target: T2, p38α (as used in the fluorescence polarization titrations) (human, UniProt Q16539 1-360); experiment: as above; settings: both partners purified
# T2 construct: p38α; the FP methods say only 'MAPKs'
# T2 sequence (Q16539 whole entry): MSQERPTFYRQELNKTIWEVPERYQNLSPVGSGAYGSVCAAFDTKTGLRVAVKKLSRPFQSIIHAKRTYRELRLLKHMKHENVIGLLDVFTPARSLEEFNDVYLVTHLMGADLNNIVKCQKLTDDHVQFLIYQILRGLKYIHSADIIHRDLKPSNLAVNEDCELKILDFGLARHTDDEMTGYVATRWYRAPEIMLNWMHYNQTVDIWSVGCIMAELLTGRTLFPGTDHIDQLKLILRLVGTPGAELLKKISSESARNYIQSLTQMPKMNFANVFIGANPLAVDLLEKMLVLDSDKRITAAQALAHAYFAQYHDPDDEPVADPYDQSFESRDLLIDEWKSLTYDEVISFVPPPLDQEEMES
Binder,binding result [1],binding result [2]
B1,binds,–
B2,–,binds
B3,–,binds
